The source of these data is article PMC8651787, “Tankyrase-1-mediated degradation of Golgin45 regulates glycosyltransferase trafficking and protein glycosylation in Rab2-GTP-dependent manner” (Communications Biology, 2021).

For assay [1], the target named is T1, TNKS1-Arc1 (183–335aa) (human, UniProt O95271 183-335).
T1 construct: human Tankyrase-1 (TNKS1), ARC (Ankyrin Repeat Cluster) domain 1, residues 183-335; pET24b plasmid; also called Arc I; ArcI; source: E. coli BL21 (DE3), purified (Ni-NTA Agarose); not shown: His6, C-terminal, kept
T1 sequence (looked up): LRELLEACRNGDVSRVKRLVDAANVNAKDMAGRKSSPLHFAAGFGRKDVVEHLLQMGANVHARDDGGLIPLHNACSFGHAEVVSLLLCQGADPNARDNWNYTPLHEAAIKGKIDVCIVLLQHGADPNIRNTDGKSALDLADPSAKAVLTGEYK
The assay can be described thus: pull-down; 150 μg GST fusion protein on Glutathione-Sepharose 4B beads; 0.1 μM prey protein; 25 mM Hepes pH 7.4, 150 mM NaOAc, 0.2% Triton, 1 mM DTT; 4 °C, 2 h; western blot. The settings on record: both partners purified.

For assay [2], the target named is T1, TNKS1-Arc1 (183–335aa). The assay can be described thus: BLI; Octet RED96; GST fusion proteins loaded on GST biosensors at 10 ug/ml; TNKS1-Arc1 as analyte (0.16-4.56 μM); 25 °C; 25 mM Hepes pH 7.4, 150 mM NaOAc, 0.2% Triton, 1 mM DTT; steady-state fit. The settings on record: both partners purified.

B1: GST-Golgin45 N70 S49D (domain or fragment, human, UniProt Q9H2G9 1-70, looked up)
chain: MTTKNLETKVTVTSSPIRGAGDGMETEEPPKSVEVTSGVQSRKHHSLQDPWKKAVPSESPGVLQLGKMLT
notes: Golgin45 (BLZF1), N-terminal residues 1-70, phospho-mimicking S49D in the Cdc2 consensus 49SPWK52; also called GST-Golgin45 S49D mutant; source: E. coli BL21 (DE3), purified (Glutathione HiCap Matrix)
Consider B1, for which the binding result with TNKS1-Arc1 (183–335aa) [1] is recorded as “binds”.

B2: GST-Golgin45 N-terminal domain (amino acid 1–70) (domain or fragment, human, UniProt Q9H2G9 1-70, looked up)
chain: MTTKNLETKVTVTSSPIRGAGDGMETEEPPKSVEVTSGVQSRKHHSLQSPWKKAVPSESPGVLQLGKMLT
notes: Golgin45 (BLZF1), N-terminal residues 1-70; pGEX-6p-1 plasmid; also called GST-Golgin45 N70 wt; Golgin45 N70 WT; source: E. coli BL21 (DE3), purified (Glutathione HiCap Matrix)
Regarding B2, in the assay with TNKS1-Arc1 (183–335aa) [2], the Kd is ~1.46 µM.

B3: GST-Golgin45 N70 S15D (domain or fragment, human, UniProt Q9H2G9 1-70, looked up)
chain: MTTKNLETKVTVTSDPIRGAGDGMETEEPPKSVEVTSGVQSRKHHSLQSPWKKAVPSESPGVLQLGKMLT
notes: Golgin45 (BLZF1), N-terminal residues 1-70, phospho-mimicking S15D in the Cdc2 consensus 15SPIR18; also called S15D mutated GST-Golgin45; Golgin45 S15D mutant; source: E. coli BL21 (DE3), purified (Glutathione HiCap Matrix)
In the case of B3, the Kd in the assay with TNKS1-Arc1 (183–335aa) [2] is 2.78 ± 0.08 µM.
